US20150110806A1 (INSTITUT NATIONAL DE LA SANTE ET DE LA RECHERCHE MEDICALE, published 2015)

Target: T1, MBP (UniProt P0AEX9 27-392 = MBP)
T1 construct: Control without pilin
Experiment: co-precipitation of CD147-Fc with MBP immobilised on staphylococci, immunoblot

B1: recombinant human CD147-Fc chimera (Fc fusion)
chain: THGASGAAGTVFTTVEDLGSKILLTCSLNDSATEVTGHRWLKGGVVLKEDALPGQKTEFKVDSDDQWGEYSCVFLPEPMGTANIQLHGPPRVKAVKSSEHINEGETAMLVCKSESVPPVTDWAWYKITDSEDKALMNGSESRFFVSSSQGRSELHIENLNMEADPGQYRCNGTSSKGSDQAIITLRVRSH
notes: Bought from R&D Systems; comprises the Ig domains of CD147 fused to the Fc domain of human IgG1, produced as a disulfide-linked homodimer; also called soluble chimeric CD147-Fc; recombinant soluble form of the extracellular domain of CD147; not shown: Fc domain of human IgG1
- binding result: no binding (tested: 1 µg of recombinant human CD147-Fc)
